Data set [1] concerns the molecule itself. Kind of data set: single-molecule GFP photobleaching step counting (TIRF microscopy); real-time binding of GFP-tagged WRN to model replication fork immobilised via biotin-streptavidin; all bound molecules counted; no ATP; 10 mM Tris-HCl pH 8.0, 50 mM NaCl; room temperature; oligomer counted on DNA.
Data set [2] deals with the molecule itself. The experiment in a line: single-molecule GFP photobleaching step counting (TIRF microscopy); immobilised forked DNA incubated with 24 nM GFP-tagged WRN and 1 nM RPA, unbound washed out; steps counted in the absence of ATP; only molecules with unwinding activity (Cy3-Cy5 FRET after 1 mM ATP-Mg2+) counted; room temperature.

B1: GFP-tagged Werner syndrome protein (f:GFP-WRN) (enzyme)
chain: not shown
notes: Werner syndrome protein (WRN), human; cDNA encoding full-length WRN generated by RT-PCR from total RNA of HEK293T cells, subcloned into pFASTBAC1; Number of copies depends on the condition: dimer or tetramer on DNA (see measurements); also called GFP-tagged WRN; not shown: FLAG, N-terminal, kept; GFP, N-terminal, kept
Usually stoichiometry N stands for the number of molecules, sites or subunits per partner or assembly. Consider B1, for which the “stoichiometry N” value in data set [1] amounted to 4; in data set [2], 2.

These data come from article PMC9841404, “Werner syndrome protein works as a dimer for unwinding and replication fork regression” (Nucleic Acids Research, 2022).
